Molecular target: HA-GluA1 (mouse AMPA receptor subunit GluA1) (mouse, UniProt P23818 19-907)
Assay: cell-based or functional assay

Chain of HA-GluA1 (mouse AMPA receptor subunit GluA1) (P23818 19-907): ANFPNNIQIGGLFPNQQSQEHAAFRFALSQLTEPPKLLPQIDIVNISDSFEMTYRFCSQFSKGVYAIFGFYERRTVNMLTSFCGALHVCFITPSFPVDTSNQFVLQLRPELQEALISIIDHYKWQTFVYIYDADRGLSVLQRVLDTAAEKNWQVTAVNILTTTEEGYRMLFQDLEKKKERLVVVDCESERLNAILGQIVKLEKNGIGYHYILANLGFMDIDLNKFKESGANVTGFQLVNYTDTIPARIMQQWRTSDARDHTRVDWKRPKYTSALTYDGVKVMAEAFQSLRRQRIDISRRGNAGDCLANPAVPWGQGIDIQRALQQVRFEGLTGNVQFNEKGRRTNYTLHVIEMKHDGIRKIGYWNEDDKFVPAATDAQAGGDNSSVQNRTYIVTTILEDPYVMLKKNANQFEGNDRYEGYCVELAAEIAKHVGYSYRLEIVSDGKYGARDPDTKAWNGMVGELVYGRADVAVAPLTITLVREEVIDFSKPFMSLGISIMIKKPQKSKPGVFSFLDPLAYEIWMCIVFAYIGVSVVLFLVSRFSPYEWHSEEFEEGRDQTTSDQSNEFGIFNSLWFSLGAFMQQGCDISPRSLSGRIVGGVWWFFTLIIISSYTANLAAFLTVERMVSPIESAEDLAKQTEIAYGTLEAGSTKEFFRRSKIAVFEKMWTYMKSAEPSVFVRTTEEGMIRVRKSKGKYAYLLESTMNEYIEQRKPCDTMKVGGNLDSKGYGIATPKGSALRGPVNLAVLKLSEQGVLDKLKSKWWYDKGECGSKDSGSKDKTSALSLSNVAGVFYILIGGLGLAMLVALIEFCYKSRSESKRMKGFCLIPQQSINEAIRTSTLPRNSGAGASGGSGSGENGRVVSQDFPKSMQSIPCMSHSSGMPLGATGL

B1: RNF220(R363Q) (enzyme, mouse, UniProt Q6PDX6 1-566, looked up)
chain: MDLHRAAFKMENSSYLPNPLASPALMVLASTAEASRDASIPCQQPRPFGVPVSVDKDVHIPFTNGSYTFASMYHRQGGVPGTFANRDFPPSLLHLHPQFAPPNLDCTPISMLNHSGVGAFRPFASTEDRESYQSAFTPAKRLKNCHDTESPHLRFSDADGKEYDFGTQLPSSSPGSLKVDDTGKKIFAVSGLISDRETSSSPEDRNDRCKKKAVALFDSQAPLCPICQVLLRPSELQEHMEQELEQLAQLPASKNSLLKDAMAPGTPKSLLLSASIKREGDSPTASPHSSATEDLHHSDRYQTFLRVRANRQTRLNARIGKMKRRKQDEGQREGSCMAEDDAVDIEHADSNRFEEYEWCGQKQIRATTLLEGGFRGSGFVMCSGKENPDSDADLDVDGDDTLEYGKPQYTEADVIPCTGEEPGEAKEREALRGAVLNGGPPSTRITPEFSKWASDEMPSTSNGEGSKQEAMQKTCKNSDIEKITEESAVTTFEALKARVRELERQLSRGDRYKCLICMDSYSMPLTSIQCWHVHCEECWLRTLGAKKLCPQCNTITAPGDLRRIYL
In the case of B1, the “GluA1 polyubiquitination level relative to wild-type RNF220 transfection” value is reported as 0.34.

B2: RNF220(R365Q) (enzyme, mouse, UniProt Q6PDX6 1-566, looked up)
chain: MDLHRAAFKMENSSYLPNPLASPALMVLASTAEASRDASIPCQQPRPFGVPVSVDKDVHIPFTNGSYTFASMYHRQGGVPGTFANRDFPPSLLHLHPQFAPPNLDCTPISMLNHSGVGAFRPFASTEDRESYQSAFTPAKRLKNCHDTESPHLRFSDADGKEYDFGTQLPSSSPGSLKVDDTGKKIFAVSGLISDRETSSSPEDRNDRCKKKAVALFDSQAPLCPICQVLLRPSELQEHMEQELEQLAQLPASKNSLLKDAMAPGTPKSLLLSASIKREGDSPTASPHSSATEDLHHSDRYQTFLRVRANRQTRLNARIGKMKRRKQDEGQREGSCMAEDDAVDIEHADSNRFEEYEWCGQKRIQATTLLEGGFRGSGFVMCSGKENPDSDADLDVDGDDTLEYGKPQYTEADVIPCTGEEPGEAKEREALRGAVLNGGPPSTRITPEFSKWASDEMPSTSNGEGSKQEAMQKTCKNSDIEKITEESAVTTFEALKARVRELERQLSRGDRYKCLICMDSYSMPLTSIQCWHVHCEECWLRTLGAKKLCPQCNTITAPGDLRRIYL
In the case of B2, the “GluA1 polyubiquitination level relative to wild-type RNF220 transfection” value is reported as 0.3.

Source: article PMC9524831 (Science Advances, 2022)
